Reference: paper PMC3333882 (Nucleic Acids Research, 2011)

Biological target: MEF2C-Flag (myocyte enhancer factor 2C with Flag tag) (UniProt Q8CFN5 1-474)
Assay: co-IP

Sequence of MEF2C-Flag (myocyte enhancer factor 2C with Flag tag) (Q8CFN5 whole entry): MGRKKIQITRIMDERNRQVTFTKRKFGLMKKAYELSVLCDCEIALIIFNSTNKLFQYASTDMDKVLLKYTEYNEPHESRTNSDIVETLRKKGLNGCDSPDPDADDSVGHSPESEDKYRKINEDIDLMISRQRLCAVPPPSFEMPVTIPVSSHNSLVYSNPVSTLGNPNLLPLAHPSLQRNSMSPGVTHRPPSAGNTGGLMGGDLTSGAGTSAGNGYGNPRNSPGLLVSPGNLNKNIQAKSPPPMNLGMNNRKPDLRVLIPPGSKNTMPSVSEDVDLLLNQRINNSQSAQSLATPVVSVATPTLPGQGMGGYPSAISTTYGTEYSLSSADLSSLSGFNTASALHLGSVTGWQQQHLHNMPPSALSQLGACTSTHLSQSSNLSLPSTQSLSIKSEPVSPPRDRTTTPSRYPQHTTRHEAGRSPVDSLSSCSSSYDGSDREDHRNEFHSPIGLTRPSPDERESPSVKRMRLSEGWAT

fold amount co-immunoprecipitated against the Flag-vector control: 4 fold
B1: Gli2 (glioma-associated factor 2) (natural protein, mouse, UniProt Q0VGV1 1-1540, looked up)
chain: METSAPAPALEKKEAKSGLLEDSSFPDPGKKACPLAVAAAVAAHGVPQQLLPAFHAPLPIDMRHQEGRYHYDPHSVHSVHGPPTLSGSPFISDISLIRLSPHPAGPGESPFSAHHPYVNPHMEHYLRSVHSSPTLSMISAARGLSPADVAHEHLKERGLFSLAAPGTNPSDYYHQMTLMASHPTPYGDLLMQSGGAASAPHLHDYLNPVDASRFSSPRVTPRLSRKRALSISPLSDASLDLQRMIRTSPNSLVAYINNSRSSSAASGSYGHLSAGALSPAFTFPHPINPVAYQQILSQQRGLGSAFGHTPPLIQPSPTFLAQQPMTLTSISTMPTQLSSSSSNCLNDANQNKQNSESAVSSTVNPITIHKRSKVKTEAEGLRPASPLGLTQEQLADLKEDLDRDDCKQEAEGVIYETNCHWADCTKEYDTQEQLVHHINNEHIHGEKKEFVCRWQACTREQKPFKAQYMLVVHMRRHTGEKPHKCTFEGCSKAYSRLENLKTHLRSHTGEKPYVCEHEGCNKAFSNASDRAKHQNRTHSNEKPYICKIPGCTKRYTDPSSLRKHVKTVHGPDAHVTKKQRNDVHVRAPLLKENGDNEASAEPGGRGPEESVEASSTSHTVEDCLHIKAIKTESSGLCQSSPGAQSSCSSEPSPLGSAPNNDSGMEMPGTGPGSLGDLTALADTCPGADTSALAAPSTGGLQLRKHMSTVHRFEQLKREKLKSLKDSCSWAGPAPHTRNTKLPPLPVNGSVLENFNNTGGGGPAGLLPSQRLPELTEVTMLSQLQERRDSSTSTMSSAYTVSRRSSGISPYFSSRRSSEASPLGGLRPHNASSADSYDPISTDASRRSSEASQCSGGGPGLLNLTPAQQYNLRAKYAAATGGPPPTPLPGLDRVSLRTRLALLDAPERALPGACPHPLGPRRGSDGPTYSHGHGHGYAGAAPAFPHEGPNSSTRRASDPVRRPDPLILPRVQRFHSTHNMNPGSLPPCADRRGLHVQSHPSVDSNLTRNAYSPRPPSINENVVMEAVAAGVDGPGLECDLGLVEDELVLPDDVVQYIKAHTGGTLDDGIRQGYPTEGTGFPENSKLPSPGLQGHRRLAAADSNMGPSAPGLGGCQLSYSPSSNLNKSNMPVQWNEVSSGTVDALPTQVKPPPFPHSNLAVVQQKPAFGQYPGYNPQSVQSSSGGLDSTQPHLQLRGAPSASRGSYTQQPRQPAAGSQCLGMSAAMSPQASYSQAHPQLSPNIVSGSLNQFSPSCSNMAAKPSHLGLPQQMEVVPNATIMNGHQREHGVPNSSLAAVSQPHPVLSYPQQDSYQQGSNLLSSHQPGFMESQQNAGFGLMQPRPPLEPNTASRHRGVRSGQQQLYARTTGQAMVTSANQETAEAMPKGPAGTMVSLAPQPSQDTGRAQDQNTLYYYGQIHMYEQNGGCPAVQPQPPQPQACSDSIQPEPLPSPGVNQVSSTVDSQLLEPPQIDFDAIMDDGDHSSLFSGALSPTLLHNLSQNSSRLTTPRNSLTLPSIPAGISNMAVGDMSSMLTSLAEESKFF
